# B1: TPR t1 (parent)
# chain: GACCAAUCUGCCCUCAGAGCUCGAGAACAUCUUCGGAUGCAGAGGAGGCAGGCUUCGGUGGCGCGAUAGCGCCAACGUCCUCAACCUCCAAUGCAUCCCACCACAUGAUGAUGCCUGAAGAGCCUUGGUUUUUUG
# Variants of: B1
# Assay: polymerase ribozyme fitness, log enrichment relative to wild type (log ratio); higher = more active; in vitro selection for triplet polymerase activity
# Outline: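 Genotype fitness is the logarithm of its enrichment divided by wild-type enrichment, using inverse-variance-weighted averages of replicates. That logarithm is base 2. Enrichment was measured by Illumina sequencing of input and output libraries from one triplicate in vitro selection round, with frozen incubation at −7 °C, on PCR-built, transcribed mutant libraries of each subunit of a heterodimeric triplet polymerase ribozyme, retaining genotypes with ≥10 input reads and ≥1 read per output.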
row,Variant,polymerase ribozyme fitness (log ratio)
1,GACCAAUCUGCCCUCAGAGCUCGAGAACAUCUUCGGAUGCAGAGGAGGCAGGCUUCGGUGGCGCGAUAGCGCCAACGUACUCAACCUCCAAUGCAUCCCACCACAUGAUGAUGCCUGAAGUGCCUUGGUUUUUGG [C79A A121U U134G],2.45
2,GACCAAUCUCCCCUCAGAGCUCGAGAACAUCUUCGGAUGGAGAGGAGGCAGGCUUCGGUGGCGCGAUAGCGCCAACGUCCUCAACCUCCAAUGCAUCCCACCACAUGAUGAUGCCUGAAGAGCCUUGGUUUUUUG [G10C C40G],-1.34
3,GACCAAUCUGCCCUCAGAGCUCGAGAACAUCUUCGGAUGCAGAGGAGGCAGGCUUCGGUGGCGCGAUAGCGCCAACGUCCUCAACCUCCAAUGCAUCCCACCACAUGAGGAUGCCUGAAAAGCCUUGGUUUUUUG [U109G G120A],-4.17
4,GACCAAUCUGCCCUCAGAGCUCGAGAACAUCUUCAGAUGCAGAGGAGGCAGGCUUAGGUGGCGCGAUAGCGCCAACGUCCUCAACCUCCAAUGCAUCCCACCACAUGAUGAUGCCUGAAGAGGCUUGCUUUUUUG [G35A C56A C123G G128C],-5.64
5,GACCAAUCUGCCCUCAGAGCUCGAGAACAUCUUCGGAUGCAGAGGAGGCAGGCUUCGGUGGCGCGAUAGCGCCAACGUCCUGAACUUCCAAUGCAUCCCACUACAUGAUGAGGCCUGAAGAGCCUUGGUUUUUUG [C82G C86U C102U U112G],-3.94
6,GACCAAUCUGCCCUCAGAGCUCGAGAACAUCUUCGGAUGCAGAGGAGGCAGGCUUCGGUGGCGCGUUAGCGCCAACGUCCUCAACCUCCGGUGCAUCCCACCGCAUCAUGAUGCCUGAAGGGCCUUGGUUUUUUG [A66U A90G A91G A103G G107C A121G],-5.84
7,GACCAAUCUGCCCUCAGAGCUCGAGAACAUCUUCGGAUGCAGAGGCGGCUGGCUUCGGUGGCGCGAUAGCUCCAACGUCCUCAACCUCCAAUGCAUCCCACCACAUGAUGAUGCCUGAAGAGCCUUGGUUUUUUG [A46C A50U G71U],-1.86
8,GACCACUCUGCCCUCAGAGCUCGAGAACAUCUUCGGGUGCAGAGGACGCAGGCUUCGGUGGCGUGAUAGCGCCAACGUCCUCAACCACCAAUGCAUCCCACCACAUGAUGAUGCCUGAACAGCGUUGGUUUUUUG [A6C A37G G47C C64U U87A G120C C124G],-2.79
9,GACCAAUCUGACAUCAGAGCUCGAGAACAUCUUCGGAUGUAGAGGAGGCAGGCUUCGGUGGCGCGAUAGCGCCAACGUCCUCAACCUCCAAUGCAUCCCACCACAUGAUGAUGCCUGAAGAGCCUUGGUUUUUUG [C11A C13A C40U],-3.65
10,GACCAAUCUGCCCUCAGAUCUCGAGAACAUCUUCGGAUGCAGAGGAGGCAGGCUUCGGUGGCGCGAUAGCUCCAACGUCCUCAUCCUCCAAUGCAUCCCACCACAUGAUGAUGCCUGAAGAGCCUUGGUUUUUUG [G19U G71U A84U],-4.08
11,GAUCAAUCUGCCCUCAGAGCUCGAGAACAUCUUCGGAUGCAGAUGAGGCAGGCUUCGGUGGCGCGAUAGCGCCAACGUCCUAAACCUCCAAUGCAUCCCACCACAUGAUGAUGCCUGAAGAGCCUUGGUUUUUUG [C3U G44U C82A],-1.68
12,GACCAAUCUGCCCUCAGAGCUCGAGAACAUCUUCGGAUGCAGAGGAGGCAGGCUUCGGUGGCGCGAUAGCGCCAACGUCCUCAACCUCCAAUGCAUCCAACCACAUGAUGAUGCCUGAAGAGCCUUGGUUUUUUG [C99A],-6.24
13,GAUCAAUCUGCCCUCAGAGCUCGAGAACAUCUUCGGAUGCAGAGGAGGCAGGCUUCGGUGGCGCGAUAGCGCCAACGUCCUCAACCUCCAAUGCAUCCCACCACAUGAUGAUGCCUGAAGAGCAUUGGUUUUUUG [C3U C124A],1.2
14,GACCAAUCUGCCCUCAGAGCUCGAGAACAUCUUCGGAUGCAGAGGAGGCAGGCUUCGGUGGCGCGAUAGCGCCAACGUCCUCAACCUCCAAUGCAUCCCACCACAUGAUGAUGCCUGAAAAGCCAAGAUUUUUUG [G120A U125A U126A G128A],0.067
15,GACCAAUCUGCCCUCAGAGCUCGAGAACGUCUUCGGAUGCAGGGGAGGCAGGCUUCGGUGGCGCGAUAGCGCCAACGUCCUCAACCUCCAAUGCAUCCCACCACAUGAUGAUGCCUGAAGAGCCUUGGUUUUUUG [A29G A43G],-2.43
16,GACCAAUCAGCCCUCAGAGCUCGAGAACAUCUUCGGAUGGAUAGGAGGCAGGCUUCGGUGGCGCGAUAGCGCCAACGUCCUCAACCUCCAAUGCAUCCCACCACAUGAUGAUGCCUGAAGAGCCUUGGUUUUUUG [U9A C40G G42U],-1.9
17,GACCAAUCUGCCCUCAGAGCUCGAGAACAUCUUCGGAUGCAGAGGAGUCAGGCUUCGGUGGCGCGAUAGCUCCAACGUCCUCAACCUCCAAUGCAUCCCACCACAUGAUGAUGUCUGAAGAGCCUUGGUUUUUUG [G48U G71U C114U],-3.21
18,GACCAAUCUGCCCUCAGAGCUCGAGAACAUCUUCGGAUGCAGAGGAGGCAGGCUUCGGUGUCGCGAUAGCGCCAACGUCCUCAACCUCCAAUGCAUCCCACCACAUGAUGAUGCCUGAAGAGCCUUGGUCUUUUG [G61U U130C],0.445
19,GACCAAUCUGCCCUCAGAGCUCGAGAACAUCUUCGGAUGAAGAGGAGGCAGGCUUCGGUGGCGCGAUAGCGUCAACCUCCUCAACCUCCAAUGCAUCCCACCACAUGAUUAUGCCUGAAGAGCCUUGGUUUUUUG [C40A C72U G77C G110U],-3.75
20,GACCAAUCUGCCCUCAGAGCUCGAGAAGAUCUUCGGAUGCAGAGGAGGCAGGCUUCGGUGGCGCGAUAGCGCCAACGUCCUCAACCUCCAAUGCAUCCCACCACAUGAUAAUGCCUGAAGAGCCUUGGUUUUUUG [C28G G110A],-1.49
21,GACCAAUCUGCCCUCAGAGCUCGAGAACCUCUUCGGGUGCAGAGGAUGCAGGCUUCGGUGGCGCGAUAGCGCCAACGUCCUCAACCUCCAAUGCAUCCCAUCACAUGAUUAUGCCUGAAGAGCCUUGGUUUUUUG [A29C A37G G47U C101U G110U],-5.5
